In patent publication US20170283458A1, “COLLAGEN-BINDING SYNTHETIC PEPTIDOGLYCANS FOR WOUND HEALING” (Symic Biomedical, Inc., priority 2009, published 2017):
Ends that are not written are not given here.

Assays:
[1] = target: T1, collagen I (Bos taurus, UniProt P02453+P02465); experiment: Cryo-SEM measurements on collagen I, fibril diameter; assay type: biochemical; conditions: 4 mg/mL collagen, 10:1 collagen:treatment, cryo-SEM 20,000×
T1 construct: purchased Inamed, Freemont, Calif; Nutragen
Method: Gels were made with Nutragen collagen (Inamed, Freemont, Calif.) at a final concentration of 4 mg/mL collagen. Nutragen stock is 6.4 mg/mL in 10 mM HCl. Gel preparation was performed on ice, and fresh samples were made before each test. The collagen solution was adjusted to physiologic pH and salt concentration, by adding appropriate volumes of 10×PBS (phosphate buffered saline), 1×PBS, and 1M NaOH. For most experiments, samples of DS, decorin, DS-SILY, or DS-Dc13 were added at a 10:1 collagen:treatment molar ratio by a final 1×PBS addition (equal volumes across treatments) in which the test samples were dissolved at appropriate concentrations. In this way, samples are constantly kept at pH 7.4 and physiologic salt concentration. Collagen-alone samples received a 1×PBS addition with no sample dissolved. Fibrillogenesis will be induced by incubating neutralized collagen solutions at 37° C. overnight in a humidified chamber to avoid dehydration. Gel solutions with collagen:treatment molar ratios of other than 10:1 were prepared similarly.
Gels for cryo-SEM were formed, as in EXAMPLE 16, directly on the SEM stage and incubated at 37° C. overnight. The stages were then secured in a cryo-holder and plunged into liquid nitrogen slush. Samples were then transferred to a Gatan Alto 2500 pre-chamber cooled to −170° C. under vacuum. A free-break surface was created with a cooled scalpel, and each sample evaporated under sublimation conditions for 20 min. The sample was coated by platinum sputter coating for 120 s. Samples were transferred to the cryo-stage at −130° C. and regions with similar orientation were imaged for comparison across treatments. Analysis of the images was performed to determine the fibril diameter distribution, presented in histograms adjacent the corresponding image in FIG. 14, and average fibril diameter, FIG. 17 an 18;. Fibril diameter was calculated using ImageJ software (NIH) measuring individual fibrils by hand (drawing a line across fibrils and measuring its length after properly setting the scale). At least 45 independent fibril measurement were recorded for average fibril diameter calculations.

[2] = tested on: Human coronary artery smooth muscle cells (HCA SMC); experiment: Gel compaction by smooth muscle cells in collagen gels; assay type: cell-based; conditions: Days 3 and 5
Method: Human coronary artery smooth muscle cells (HCA SMC) (Cascade Biologics) were cultured in growth medium (Medium 231 supplemented with smooth muscle growth factor). Cells from passage 3 were used for all experiments. Differentiation medium (Medium 231 supplemented with 1% FBS and 1× pen/strep) was used for all experiments unless otherwise noted.
Collagen gels were prepared with each additive as described with the exception that the 1×PBS example addition was omitted to accommodate the addition of cells in media. After incubating on ice for 30 min, HCA SMCs in differentiation medium were added to the gel solutions to a final concentration of 1×10^6 cells/mL. Gels were formed in quadruplicate in 48-well non-tissue culture treated plates (Costar) for 6 hrs before adding 500 μL/well differentiation medium. Gels were freed from the well edges after 24 hrs. Medium was changed every 2-3 days and images for compaction were taken at the same time points using a Gel Doc System (Bio-Rad). The cross-sectional area of circular gels correlating to degree of compaction was determined using ImageJ software (NIH). Gels containing no cells were used as a negative control and cells in collagen gels absent additive were used as a positive control. […] By day 10 all gels had compacted to approximately 10% of the original gel area, and differences between additives were small.

[3] = target: T2, collagen gels (Bos taurus, UniProt P02453+P02465); experiment: Cryo-SEM measurement of fibril density; assay type: biochemical; conditions: 10:1 molar ratio, cryo-SEM 10,000×
T2 construct: purchased Inamed, Freemont, Calif; Nutragen
Method: Collagen gels were formed in the presence of each additive at a 10:1 molar ratio, as described in EXAMPLE 16, directly on the SEM stage, processed, and imaged as described. Images at 10,000× were analyzed for fibril density calculations. Images were converted to 8-bit black and white, and threshold values for each image were determined using ImageJ software (NIH). The threshold was defined as the value where all visible fibrils are white, and all void space is black. The ratio of white to black area was calculated using MatLab software. All measurements were taken in triplicate and thresholds were determined by an observer blinded to the treatment.

[4] = tested on: Long-Evans rats; experiment: Rat incisional model, H&E histological scoring for inflammation; assay type: in vivo; conditions: low and high doses, all time points
Method: Using sterile techniques, longitudinal wounds were incised on shaved dorsal skin of the rats. A 4 cm incision was cut through the panniculus down to the skeletal musculature, and a 250 μL single dose of either 10 mg/mL hyaluronic acid (HA) or HA+DS-SILY was applied to the open wound by a syringe. DS-SILY was tested at 0.5, 1, and 2.5 mg/mL mixed with HA. The incision was then sutured closed and animals were returned to individual cages and monitored for complications. Negative control rats received no treatment and were treated identically. A pilot study was performed (n=3) at time points 3, 7, 10, 14, and 21 days, followed by a higher powered study (n=9) for 21 and 28 day time points. […]
H&E stained samples were examined for inflammation by a board certified pathologies blinded to the treatments following a scale adapted from Simhon et al. Trichrome stained samples were evaluated for scar tissue formation by an observer blinded to the treatments using a method established by Beausang et al. in which collagen orientation, density, and maturation are observed and compared to collagen of healthy tissue. A total of 12 tissue samples were analyzed for each study at each time point. Statistics were analyzed by ANOVA using Design Expert software (StatEase, Minneapolis, Minn.). […]

T2 sequence (P02453 162-1217 limits assumed): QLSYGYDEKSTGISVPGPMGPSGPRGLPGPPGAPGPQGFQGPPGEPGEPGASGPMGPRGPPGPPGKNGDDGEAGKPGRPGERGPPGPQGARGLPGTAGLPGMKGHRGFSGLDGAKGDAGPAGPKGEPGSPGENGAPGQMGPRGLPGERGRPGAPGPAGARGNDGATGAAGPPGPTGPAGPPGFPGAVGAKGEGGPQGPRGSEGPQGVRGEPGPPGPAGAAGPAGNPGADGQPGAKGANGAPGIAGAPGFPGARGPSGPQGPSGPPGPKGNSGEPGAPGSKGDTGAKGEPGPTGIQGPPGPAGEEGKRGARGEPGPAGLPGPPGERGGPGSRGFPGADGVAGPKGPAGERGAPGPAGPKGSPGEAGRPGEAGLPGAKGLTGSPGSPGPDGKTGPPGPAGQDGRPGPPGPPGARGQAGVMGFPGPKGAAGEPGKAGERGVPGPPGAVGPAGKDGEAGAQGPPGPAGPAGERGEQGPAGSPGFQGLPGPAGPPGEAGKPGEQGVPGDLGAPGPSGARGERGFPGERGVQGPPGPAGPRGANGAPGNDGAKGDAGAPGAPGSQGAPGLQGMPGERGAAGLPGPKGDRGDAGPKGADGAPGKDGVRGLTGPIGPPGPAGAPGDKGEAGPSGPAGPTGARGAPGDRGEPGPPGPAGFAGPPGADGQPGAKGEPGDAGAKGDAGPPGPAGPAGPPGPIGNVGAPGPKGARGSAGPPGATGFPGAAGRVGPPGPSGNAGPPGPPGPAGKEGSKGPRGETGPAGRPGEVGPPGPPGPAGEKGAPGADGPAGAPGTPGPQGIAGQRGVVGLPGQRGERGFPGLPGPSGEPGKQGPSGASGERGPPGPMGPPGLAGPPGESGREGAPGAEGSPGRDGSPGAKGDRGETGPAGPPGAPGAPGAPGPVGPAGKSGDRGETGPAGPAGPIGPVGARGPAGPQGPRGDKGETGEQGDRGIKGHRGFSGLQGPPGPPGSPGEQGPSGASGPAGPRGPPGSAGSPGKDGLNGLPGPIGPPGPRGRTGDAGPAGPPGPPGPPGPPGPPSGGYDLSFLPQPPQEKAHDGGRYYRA
T2 sequence (P02465 80-1117 limits assumed): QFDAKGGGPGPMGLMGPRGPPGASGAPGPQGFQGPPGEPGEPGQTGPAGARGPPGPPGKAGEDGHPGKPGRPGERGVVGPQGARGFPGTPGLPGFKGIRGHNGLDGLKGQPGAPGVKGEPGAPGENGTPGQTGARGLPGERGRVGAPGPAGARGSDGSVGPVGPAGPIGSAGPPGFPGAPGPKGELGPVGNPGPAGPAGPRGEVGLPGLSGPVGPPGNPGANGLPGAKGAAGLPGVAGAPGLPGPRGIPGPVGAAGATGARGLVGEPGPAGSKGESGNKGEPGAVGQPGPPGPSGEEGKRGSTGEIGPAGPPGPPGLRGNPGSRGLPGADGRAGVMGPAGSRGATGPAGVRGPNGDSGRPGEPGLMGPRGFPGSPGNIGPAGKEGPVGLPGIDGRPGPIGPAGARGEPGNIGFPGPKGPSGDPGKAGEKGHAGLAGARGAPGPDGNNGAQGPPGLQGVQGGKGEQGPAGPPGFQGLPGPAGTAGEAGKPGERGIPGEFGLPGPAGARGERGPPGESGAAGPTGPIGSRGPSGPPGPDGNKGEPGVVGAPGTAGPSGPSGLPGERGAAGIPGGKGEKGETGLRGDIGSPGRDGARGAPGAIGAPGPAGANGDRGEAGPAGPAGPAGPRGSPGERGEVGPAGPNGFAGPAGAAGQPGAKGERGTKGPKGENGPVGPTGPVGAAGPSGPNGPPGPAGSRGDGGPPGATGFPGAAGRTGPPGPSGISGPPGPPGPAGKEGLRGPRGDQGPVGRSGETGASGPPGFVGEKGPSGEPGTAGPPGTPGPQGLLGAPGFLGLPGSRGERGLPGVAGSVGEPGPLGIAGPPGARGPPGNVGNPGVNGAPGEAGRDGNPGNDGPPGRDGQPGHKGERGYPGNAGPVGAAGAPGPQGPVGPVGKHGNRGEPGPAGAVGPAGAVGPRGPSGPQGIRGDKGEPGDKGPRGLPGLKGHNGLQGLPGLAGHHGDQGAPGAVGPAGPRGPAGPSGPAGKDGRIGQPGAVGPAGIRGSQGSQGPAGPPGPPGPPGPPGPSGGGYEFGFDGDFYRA
T1 sequence (P02453 162-1217 limits assumed): as the sequence (P02453 162-1217 limits assumed) above
T1 sequence (P02465 80-1117 limits assumed): as the sequence (P02465 80-1117 limits assumed) above

DS-SILY: collagen-binding peptidoglycan in which a single SILY peptide was conjugated to dermatan sulfate via PDPH (RRANAALKAGELYKSILYGC; also: single peptide conjugated to dermatan sulfate via PDPH, site not given here)
average fibril diameter [1]: significant decrease in average fibril diameter | gel compaction at early time points [2]: significantly compacted more than gels made of collagen alone or collagen with dermatan sulfate | fibril density (ratio of fibril containing area to void space) [3]: significantly greater fibril density | inflammatory response (histological scoring) [4]: does not cause an adverse immune response | inflammatory response (histological scoring) ([4]; listed as peptidoglycan): did not have any adverse inflammatory effect
